Test results from patent WO2017015008A1 (dated 2017).

Key:
[1] = target: T1, human HER3 ECD as shown in SEQ ID NO: 23 (human, UniProt P21860 20-643); experiment: SPR (Biacore), antibody captured on Protein A, soluble HER3-ECD as analyte
T1 construct: also called soluble HER3-ECD

Rhesus mature HER3-ECD [2] = target: T2, Rhesus mature HER3-ECD (rhesus monkey, UniProt H9ERZ8 20-643); experiment: as above
T2 construct: extracellular domain; Bought protein; also called Rhesus HER3-ECD; cynomolgus monkey HER3-ECD
T2 sequence (H9ERZ8 entry or part of it): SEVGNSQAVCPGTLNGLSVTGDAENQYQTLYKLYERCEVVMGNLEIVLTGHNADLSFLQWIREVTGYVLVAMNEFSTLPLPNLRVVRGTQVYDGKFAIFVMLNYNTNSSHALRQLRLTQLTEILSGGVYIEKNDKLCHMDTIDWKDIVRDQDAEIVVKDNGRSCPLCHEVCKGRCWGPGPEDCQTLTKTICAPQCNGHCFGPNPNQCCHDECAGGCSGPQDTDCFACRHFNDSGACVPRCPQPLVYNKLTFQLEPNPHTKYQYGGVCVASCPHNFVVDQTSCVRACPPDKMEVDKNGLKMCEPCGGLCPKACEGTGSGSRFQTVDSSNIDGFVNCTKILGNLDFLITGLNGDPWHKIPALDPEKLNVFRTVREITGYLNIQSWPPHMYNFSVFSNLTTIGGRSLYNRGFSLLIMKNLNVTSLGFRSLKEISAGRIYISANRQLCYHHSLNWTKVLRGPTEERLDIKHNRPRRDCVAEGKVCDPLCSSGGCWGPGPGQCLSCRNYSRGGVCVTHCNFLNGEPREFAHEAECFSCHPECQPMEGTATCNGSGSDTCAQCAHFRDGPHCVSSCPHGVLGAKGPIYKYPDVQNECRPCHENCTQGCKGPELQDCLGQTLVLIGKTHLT

[3] = target: T3, mouse mature HER3 ECD as shown in SEQ ID NO: 24 (mouse, UniProt Q61526 20-641); experiment: as above
T3 construct: also called mouse HER3 ECD; mouse soluble HER3-ECD
T3 sequence (Q61526 20-641 limits assumed): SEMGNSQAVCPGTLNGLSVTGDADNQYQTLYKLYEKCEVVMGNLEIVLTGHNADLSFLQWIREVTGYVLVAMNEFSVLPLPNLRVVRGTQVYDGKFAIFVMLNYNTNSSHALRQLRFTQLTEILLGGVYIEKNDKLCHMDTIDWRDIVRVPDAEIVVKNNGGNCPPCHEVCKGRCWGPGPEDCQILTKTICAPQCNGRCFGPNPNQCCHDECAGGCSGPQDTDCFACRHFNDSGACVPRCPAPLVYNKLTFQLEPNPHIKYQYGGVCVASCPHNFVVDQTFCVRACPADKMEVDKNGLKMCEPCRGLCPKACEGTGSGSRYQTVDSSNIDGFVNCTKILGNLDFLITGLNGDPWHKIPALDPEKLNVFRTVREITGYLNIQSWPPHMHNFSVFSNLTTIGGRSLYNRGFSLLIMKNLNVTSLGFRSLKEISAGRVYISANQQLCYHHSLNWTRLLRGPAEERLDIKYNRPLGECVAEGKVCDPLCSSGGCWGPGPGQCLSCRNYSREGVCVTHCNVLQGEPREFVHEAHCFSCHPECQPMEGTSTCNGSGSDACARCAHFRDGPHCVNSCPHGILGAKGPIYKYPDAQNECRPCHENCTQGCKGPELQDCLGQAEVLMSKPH

[4] = target: T1, human HER3 ECD as shown in SEQ ID NO: 23; experiment: SPR (Biacore), antibody captured on Protein A, soluble HER3-ECD as analyte, 37°C, 1:1 model
Rhesus mature HER3-ECD [5] = target: T2, Rhesus mature HER3-ECD; experiment: as above
[6] = target: T3, mouse mature HER3 ECD as shown in SEQ …; experiment: as above

T1 sequence (P21860 other isoform, or with tags, fused parts or gaps, form in doubt): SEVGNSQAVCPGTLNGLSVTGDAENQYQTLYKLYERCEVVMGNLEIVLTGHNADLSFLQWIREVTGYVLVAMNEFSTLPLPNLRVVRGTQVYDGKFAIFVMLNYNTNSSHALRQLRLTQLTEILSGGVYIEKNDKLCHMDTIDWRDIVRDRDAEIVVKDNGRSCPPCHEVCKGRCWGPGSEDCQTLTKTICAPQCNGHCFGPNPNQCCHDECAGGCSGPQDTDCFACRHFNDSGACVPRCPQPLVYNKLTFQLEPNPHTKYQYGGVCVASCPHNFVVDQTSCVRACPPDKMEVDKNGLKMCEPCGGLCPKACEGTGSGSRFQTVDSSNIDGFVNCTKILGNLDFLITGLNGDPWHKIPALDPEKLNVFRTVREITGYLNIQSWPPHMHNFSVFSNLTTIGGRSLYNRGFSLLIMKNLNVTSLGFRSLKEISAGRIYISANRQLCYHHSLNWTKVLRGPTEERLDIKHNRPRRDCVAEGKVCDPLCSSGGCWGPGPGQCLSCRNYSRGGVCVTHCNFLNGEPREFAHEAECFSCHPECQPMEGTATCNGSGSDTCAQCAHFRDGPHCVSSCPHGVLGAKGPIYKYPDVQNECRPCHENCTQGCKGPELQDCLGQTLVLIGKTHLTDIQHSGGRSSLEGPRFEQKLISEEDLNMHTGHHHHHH

- binding stoichiometry [1]: ~2 moles of ligand per mole of antibody
- binding stoichiometry (Rhesus mature HER3-ECD [2]): ~2 moles of ligand per mole of antibody
- binding stoichiometry [3]: ~2 moles of ligand per mole of antibody
- Kd [4]: 1.6 nM
- Kd (Rhesus mature HER3-ECD [5]): 2.1 nM
- Kd [6]: 3 nM
B1: anti-HER3 Antibody A (antibody, human IgG1, kappa, V domains shown)
VH: EVQLVESGGGLVKPGGSLRLSCAASGFSLDTYTMIWVRQAPGKGLEWVGIIYVTYNTYYANWAKGRFTISRDDSKNTLYLQMNSLKTEDTAVYYCTRWGDQNGLDIWGQGTLVTVSS
VL: DIQMTQSPSSLSASVGDRVTITCQSSQRVYGNKNLAWYQQKPGKAPKLLIYFARTLASGVPSRFSGSGSGTDFTLTISSLQPEDFATYYCQGTYYGTNWYVGFGGGTKVEIKR
notes: IgG type; human IgG1 Fc with C-terminal lysine deletion is stated only in embodiment language
